T1: rat α-CGRP (Rattus norvegicus, UniProt P01256)
T1 construct: rat α (1-37); host or cells: synthetic peptide
T1 sequence (P01256 83-119 limits assumed): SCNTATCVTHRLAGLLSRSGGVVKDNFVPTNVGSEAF

T2: human α-CGRP (Homo sapiens, UniProt P06881)
T2 construct: 1-37 (WT); purchased; host or cells: synthetic peptide
T2 sequence (P06881 83-119 limits assumed): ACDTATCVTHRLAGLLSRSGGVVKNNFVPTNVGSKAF


Tests used:
[1] = molecular target: T1, rat α-CGRP; test: Biacore affinity of antibody G1 Fab and variants to rat α-CGRP; format: binding; details: 37° C., Fab, screening mode unless underlined
Procedure: (§1) Biacore assay for affinity determination. […] All Biacore assays were conducted in HBS-EP running buffer (10 mM HEPES pH 7.4, 150 mM NaCl, 3 mM EDTA, 0.005% v/v polysorbate P20). CGRP surfaces were prepared by diluting the N-biotinylated CGRP to a concentration of less than 0.001 mg/mL into HBS-EP buffer and injecting it across the SA sensor chip using variable contact times. Low capacity surfaces, corresponding to capture levels <50 response units (RU) were used for high-resolution kinetic studies, whereas high capacity surfaces (about 800 RU of captured CGRP) were used for concentration studies, screening, and solution affinity determinations. […] Samples were typically injected for lminute at 100 μL/min and dissociation times of at least 10 minutes were allowed. After each binding cycle, surfaces were regenerated with 25 mM NaOH in 25% v/v ethanol, which was tolerated over hundreds of cycles. An entire titration series (typically generated in duplicate) was fit globally to a 1:1 Langmuir binding model using the BlAevaluation program. This returned a unique pair of association and dissociation kinetic rate constants (respectively, kon and koff) for each binding interaction, whose ratio gave the equilibrium dissociation constant (KD=koff/[…]).
(§2) High-resolution analysis of binding interactions with extremely slow offrates. […] The protocol described above was used with the following modifications. The association rate constant (kon) was determined by injecting a 2-fold titration series (in duplicate) spanning 550 nM-1 nM for 30 seconds at 100 μL/min and allowing only a 30 second dissociation phase. The dissociation rate constant (koff) was determined by injecting three concentrations (high, medium, and low) of the same titration series in duplicate for 30 seconds and allowing a 2-hour dissociation phase. The affinity (KD) of each interaction was obtained by combining the kon and koff values obtained in both types of experiments, as shown in Table 4.
(§3) The binding affinities of Fab fragments were determined by Biacore by flowing them across CGRPs on a SA chip.

[2] = molecular target: T2, human α-CGRP; test: Biacore affinity of antibody G1 Fab and variants to human α-CGRP; format: binding; details: 37° C., Fab, screening mode unless underlined
Procedure: as §1, §2, §3

Row | α-rat koff [1] | α-human koff [2] | Molecule
1 | 0.00217 s⁻¹ | 0.000646 s⁻¹ | M34: G1 variant: L1 R28N,T30G; H2 E54K,A57N,S58T; HC-FW3 L99T,A100V (antibody, V domains shown) VH: EVQLVESGGGLVQPGGSLRLSCAASGFTFSNYWISWVRQAPGKGLEWVAEIRSKSDNTATHYAEAVKGRFTISRDNAKNSLYLQMNSLRAEDTAVYYCTVYFDYGLAIQNYWGQGTLVTVSS VL: EIVLTQSPATLSLSPGERATLSCKASKNVGTYVSWYQQKPGQAPRLLIYGASNRYLGIPARFSGSGSGTDFTLTISSLEPEDFAVYYCSQSYNYPYTFGQGTKLEIK
2 | 0.00361 s⁻¹ | 0.000347 s⁻¹ | M31: G1 variant: L1 R28N,T30G; H2 E54K,A57G; HC-FW3 L99T,A100V (antibody, V domains shown) VH: EVQLVESGGGLVQPGGSLRLSCAASGFTFSNYWISWVRQAPGKGLEWVAEIRSKSDGSATHYAEAVKGRFTISRDNAKNSLYLQMNSLRAEDTAVYYCTVYFDYGLAIQNYWGQGTLVTVSS VL: EIVLTQSPATLSLSPGERATLSCKASKNVGTYVSWYQQKPGQAPRLLIYGASNRYLGIPARFSGSGSGTDFTLTISSLEPEDFAVYYCSQSYNYPYTFGQGTKLEIK
3 | 0.00922 s⁻¹ | 0.00075 s⁻¹ | M33: G1 variant: L1 R28N,T30G; H2 E54K,A57N,S58G; HC-FW3 L99T,A100V (antibody, V domains shown) VH: EVQLVESGGGLVQPGGSLRLSCAASGFTFSNYWISWVRQAPGKGLEWVAEIRSKSDNGATHYAEAVKGRFTISRDNAKNSLYLQMNSLRAEDTAVYYCTVYFDYGLAIQNYWGQGTLVTVSS VL: EIVLTQSPATLSLSPGERATLSCKASKNVGTYVSWYQQKPGQAPRLLIYGASNRYLGIPARFSGSGSGTDFTLTISSLEPEDFAVYYCSQSYNYPYTFGQGTKLEIK
4 | 0.00399 s⁻¹ | 0.000339 s⁻¹ | M35: G1 variant: L1 R28N,T30G; H2 E54K,A57S; HC-FW3 L99T,A100V (antibody, V domains shown) VH: EVQLVESGGGLVQPGGSLRLSCAASGFTFSNYWISWVRQAPGKGLEWVAEIRSKSDSSATHYAEAVKGRFTISRDNAKNSLYLQMNSLRAEDTAVYYCTVYFDYGLAIQNYWGQGTLVTVSS VL: EIVLTQSPATLSLSPGERATLSCKASKNVGTYVSWYQQKPGQAPRLLIYGASNRYLGIPARFSGSGSGTDFTLTISSLEPEDFAVYYCSQSYNYPYTFGQGTKLEIK
5 | 0.00296 s⁻¹ | 0.000271 s⁻¹ | M32: G1 variant: L1 R28N,T30G; H2 E54K,A57H; HC-FW3 L99T,A100V (antibody, V domains shown) VH: EVQLVESGGGLVQPGGSLRLSCAASGFTFSNYWISWVRQAPGKGLEWVAEIRSKSDHSATHYAEAVKGRFTISRDNAKNSLYLQMNSLRAEDTAVYYCTVYFDYGLAIQNYWGQGTLVTVSS VL: EIVLTQSPATLSLSPGERATLSCKASKNVGTYVSWYQQKPGQAPRLLIYGASNRYLGIPARFSGSGSGTDFTLTISSLEPEDFAVYYCSQSYNYPYTFGQGTKLEIK

The next lines start with the molecule.

Row | Molecule | α-rat koff [1] | α-human koff [2]
6 | M22: G1 variant: L1 R28W; HC-FW3 L99T (antibody, V domains shown) VH: EVQLVESGGGLVQPGGSLRLSCAASGFTFSNYWISWVRQAPGKGLEWVAEIRSESDASATHYAEAVKGRFTISRDNAKNSLYLQMNSLRAEDTAVYYCTAYFDYGLAIQNYWGQGTLVTVSS VL: EIVLTQSPATLSLSPGERATLSCKASKWVTTYVSWYQQKPGQAPRLLIYGASNRYLGIPARFSGSGSGTDFTLTISSLEPEDFAVYYCSQSYNYPYTFGQGTKLEIK | 0.0011 s⁻¹ | 0.000116 s⁻¹
7 | M29: G1 variant: L1 R28N,T30G; HC-FW3 L99T,A100V (antibody, V domains shown) VH: EVQLVESGGGLVQPGGSLRLSCAASGFTFSNYWISWVRQAPGKGLEWVAEIRSESDASATHYAEAVKGRFTISRDNAKNSLYLQMNSLRAEDTAVYYCTVYFDYGLAIQNYWGQGTLVTVSS VL: EIVLTQSPATLSLSPGERATLSCKASKNVGTYVSWYQQKPGQAPRLLIYGASNRYLGIPARFSGSGSGTDFTLTISSLEPEDFAVYYCSQSYNYPYTFGQGTKLEIK | 0.00359 s⁻¹ | 0.00038 s⁻¹
8 | M28: G1 variant: L1 R28N,T30D; H2 E54R,A57N; HC-FW3 L99T,A100V (antibody, V domains shown) VH: EVQLVESGGGLVQPGGSLRLSCAASGFTFSNYWISWVRQAPGKGLEWVAEIRSRSDNSATHYAEAVKGRFTISRDNAKNSLYLQMNSLRAEDTAVYYCTVYFDYGLAIQNYWGQGTLVTVSS VL: EIVLTQSPATLSLSPGERATLSCKASKNVDTYVSWYQQKPGQAPRLLIYGASNRYLGIPARFSGSGSGTDFTLTISSLEPEDFAVYYCSQSYNYPYTFGQGTKLEIK | 0.00125 s⁻¹ | 9.96e-05 s⁻¹
9 | M24: G1 variant: L1 R28L; HC-FW3 L99T,A100V (antibody, V domains shown) VH: EVQLVESGGGLVQPGGSLRLSCAASGFTFSNYWISWVRQAPGKGLEWVAEIRSESDASATHYAEAVKGRFTISRDNAKNSLYLQMNSLRAEDTAVYYCTVYFDYGLAIQNYWGQGTLVTVSS VL: EIVLTQSPATLSLSPGERATLSCKASKLVTTYVSWYQQKPGQAPRLLIYGASNRYLGIPARFSGSGSGTDFTLTISSLEPEDFAVYYCSQSYNYPYTFGQGTKLEIK | 0.00104 s⁻¹ | 0.000148 s⁻¹
10 | M23: G1 variant: L1 R28G; HC-FW3 L99T,A100V (antibody, V domains shown) VH: EVQLVESGGGLVQPGGSLRLSCAASGFTFSNYWISWVRQAPGKGLEWVAEIRSESDASATHYAEAVKGRFTISRDNAKNSLYLQMNSLRAEDTAVYYCTVYFDYGLAIQNYWGQGTLVTVSS VL: EIVLTQSPATLSLSPGERATLSCKASKGVTTYVSWYQQKPGQAPRLLIYGASNRYLGIPARFSGSGSGTDFTLTISSLEPEDFAVYYCSQSYNYPYTFGQGTKLEIK | 0.000799 s⁻¹ | 0.00013 s⁻¹
11 | M30: G1 variant: L1 R28N,T30G; H2 E54K,A57E; HC-FW3 L99T,A100V (antibody, V domains shown) VH: EVQLVESGGGLVQPGGSLRLSCAASGFTFSNYWISWVRQAPGKGLEWVAEIRSKSDESATHYAEAVKGRFTISRDNAKNSLYLQMNSLRAEDTAVYYCTVYFDYGLAIQNYWGQGTLVTVSS VL: EIVLTQSPATLSLSPGERATLSCKASKNVGTYVSWYQQKPGQAPRLLIYGASNRYLGIPARFSGSGSGTDFTLTISSLEPEDFAVYYCSQSYNYPYTFGQGTKLEIK | 0.00638 s⁻¹ | 0.00059 s⁻¹
12 | M27: G1 variant: L1 R28N,T30A; HC-FW3 L99T,A100V (antibody, V domains shown) VH: EVQLVESGGGLVQPGGSLRLSCAASGFTFSNYWISWVRQAPGKGLEWVAEIRSESDASATHYAEAVKGRFTISRDNAKNSLYLQMNSLRAEDTAVYYCTVYFDYGLAIQNYWGQGTLVTVSS VL: EIVLTQSPATLSLSPGERATLSCKASKNVATYVSWYQQKPGQAPRLLIYGASNRYLGIPARFSGSGSGTDFTLTISSLEPEDFAVYYCSQSYNYPYTFGQGTKLEIK | 0.00341 s⁻¹ | 0.000357 s⁻¹
13 | M26: G1 variant: L1 R28N; H2 A57G; HC-FW3 L99T,A100V (antibody, V domains shown) VH: EVQLVESGGGLVQPGGSLRLSCAASGFTFSNYWISWVRQAPGKGLEWVAEIRSESDGSATHYAEAVKGRFTISRDNAKNSLYLQMNSLRAEDTAVYYCTVYFDYGLAIQNYWGQGTLVTVSS VL: EIVLTQSPATLSLSPGERATLSCKASKNVTTYVSWYQQKPGQAPRLLIYGASNRYLGIPARFSGSGSGTDFTLTISSLEPEDFAVYYCSQSYNYPYTFGQGTKLEIK | 0.000924 s⁻¹ | 0.000148 s⁻¹
14 | M25: G1 variant: L1 R28N; HC-FW3 L99T,A100V (antibody, V domains shown) VH: EVQLVESGGGLVQPGGSLRLSCAASGFTFSNYWISWVRQAPGKGLEWVAEIRSESDASATHYAEAVKGRFTISRDNAKNSLYLQMNSLRAEDTAVYYCTVYFDYGLAIQNYWGQGTLVTVSS VL: EIVLTQSPATLSLSPGERATLSCKASKNVTTYVSWYQQKPGQAPRLLIYGASNRYLGIPARFSGSGSGTDFTLTISSLEPEDFAVYYCSQSYNYPYTFGQGTKLEIK | 0.0014 s⁻¹ | 0.00014 s⁻¹

Source: patent publication US10766952B2, “Methods for reducing migraine frequency in a subject in need thereof” (Beth Israel Deaconess Medical Center, Inc., priority 2017, dated 2020)
